Laboratory results from the supplement of paper PMC10126150.
± gives the standard deviation of the averaged measurements.

The sequences below were run on ATP (assay: switch fluorescence ratio, 500 uM ATP over buffer (Cy3 cluster intensity, sum of 5 cycles each) (fold (ratio)); higher = stronger signal-on switching upon ATP binding; sequences stand for … in TCGTCGGCAGCGTCAGATGTGTATAAGAGACAGTTTTTTTTTTTTTTTTTTTTTTTTT…TC). Settings: aptamer strand: ATP DNA aptamer (quencher-CACCTGGGGGAGTATTGCGGAGGAAGG + anchor), 100 nM annealed; ATP concentration: 500 uM.
In short: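 Clusters with intensities outside 100-1000 RFU were excluded. The remaining Cy3-labelled switching-strand clusters on a modified Illumina MiSeq flow-cell had been annealed to 100 nM quencher-labelled ATP aptamer and imaged in selection buffer, then after 15 min with 500 uM ATP at 22 °C, for five cycles separated by NaOH stripping and re-annealing. The fluorescence ratio, averaged per switch-domain sequence, is each cluster's summed target-cycle Cy3 intensity over its summed buffer-cycle Cy3 intensity.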
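Also: ATP exposure 15 min at 22 °C before imaging.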

| Sequence | switch fluorescence ratio |
| --- | --- |
| AGATTTGTGT | 0.959 ± 0.024 |
| AGATTTGTTG | 0.978 ± 0.034 |
| AGATTTTCCT | 1.19 ± 0.35 |
| AGATTTTGGT | 0.9954 ± 0.0026 |
| AGATTTTGTC | 0.972 ± 0.011 |
| AGATTTTGTT | 0.975 ± 0.017 |
| AGCAAAACGT | 1.17 ± 0.19 |
| AGCAAACGGG | 1.26 ± 0.015 |
| AGCAAAGTA | 0.9748 ± 0.0062 |
| AGCAAATATA | 1.058 ± 0.0057 |
| AGCAACGTTC | 1.07 ± 0.081 |
| AGCAAGGGGC | 1.02 ± 0.023 |
| AGCAAGTCAG | 1.07 ± 0.013 |
| AGCAATCGTT | 1.54 ± 0.071 |
| AGCAATTGGT | 1.062 ± 0.0086 |
| AGCACAAAAA | 1.12 ± 0.096 |
| AGCACGGGTT | 1.21 ± 0.3 |
| AGCAGAAATT | 1.02 ± 0.054 |
| AGCAGCGGGC | 0.997 ± 0.043 |
| AGCAGGGACT | 1.051 ± 0.0077 |
| AGCAGGGCGG | 0.983 ± 0.011 |
| AGCAGGGCTT | 1.04 ± 0.05 |
| AGCAGGTGGG | 1.05 ± 0.076 |
| AGCAGTTTAC | 1.17 ± 0.054 |
| AGCATAAGC | 1.04 ± 0.012 |

| Sequence | switch fluorescence ratio |
| --- | --- |
| AGCATGTCGT | 1.01 ± 0.015 |
| AGCATTGGCT | 1.016 ± 0.0011 |
| AGCCACATGG | 0.98 ± 0.031 |
| AGCCACGCGT | 1.01 ± 0.012 |
| AGCCAGCTGC | 0.9924 ± 0.0095 |
| AGCCAGGATG | 1.104 ± 0.0047 |
| AGCCCGGAAA | 1.023 ± 0.0038 |
| AGCCGTTTCG | 0.999 ± 0.017 |
| AGCCTAAGAT | 0.963 ± 0.012 |
| AGCCTACGGG | 1.0466 ± 0.00084 |
| AGCCTATTGT | 0.972 ± 0.035 |
| AGCCTGCCCG | 1.05 ± 0.037 |
| AGCCTTTCGT | 1.01 ± 0.054 |
| AGCGAATATT | 1.08 ± 0.098 |
| AGCGAGAGAC | 1.102 ± 0.0025 |
| AGCGAGCGAA | 1.01 ± 0.014 |
| AGCGAGGGAG | 1.005 ± 0.0059 |
| AGCGAGGTCG | 1 ± 0.031 |
| AGCGCAAAAT | 1.02 ± 0.069 |
| AGCGCAGTTT | 0.999 ± 0.021 |
| AGCGCATTGT | 1.02 ± 0.031 |
| AGCGCGATTC | 1.99 ± 0.13 |
| AGCGCTGGGA | 1 ± 0.05 |
| AGCGGAAGGC | 1.04 ± 0.024 |
| AGCGGAGGGG | 1.04 ± 0.033 |

| Sequence | switch fluorescence ratio |
| --- | --- |
| AGCGGGGCGC | 1.01 ± 0.069 |
| AGCGGGGGTG | 1.02 ± 0.018 |
| AGCGGGTAGG | 1.02 ± 0.013 |
| AGCGGGTTG | 1.02 ± 0.017 |
| AGCGGTCCTC | 1.09 ± 0.039 |
| AGCGGTGGGA | 1.02 ± 0.032 |
| AGCGGTTTCC | 1.029 ± 0.0093 |
| AGCGTCTCCG | 1.024 ± 0.006 |
| AGCGTCTGTG | 0.962 ± 0.036 |
| AGCGTTAGAG | 1.09 ± 0.017 |
| AGCGTTCTTA | 1.02 ± 0.041 |
| AGCTACCTTC | 1.42 ± 0.041 |
| AGCTAGAGTC | 1.03 ± 0.028 |
| AGCTAGCCTT | 1.02 ± 0.028 |
| AGCTAGGGGG | 0.989 ± 0.022 |
| AGCTATAGTA | 0.991 ± 0.01 |
| AGCTATGGGA | 1.04 ± 0.015 |
| AGCTATGTTA | 1.03 ± 0.0045 |
| AGCTATTCCG | 1.01 ± 0.013 |
| AGCTCCGACA | 1.63 ± 0.058 |
| AGCTCGCGTC | 0.981 ± 0.021 |
| AGCTCGGCGC | 1.02 ± 0.064 |
| AGCTGAACGG | 1.05 ± 0.025 |
| AGCTGAGTAG | 0.997 ± 0.035 |
| AGCTGAGTCT | 1.02 ± 0.034 |

| Sequence | switch fluorescence ratio |
| --- | --- |
| AGCTGATAGG | 0.991 ± 0.032 |
| AGCTGATGG | 1.0343 ± 0.00071 |
| AGCTGCTTGC | 1.04 ± 0.066 |
| AGCTGGTGGA | 1.02 ± 0.024 |
| AGCTTATTGC | 0.977 ± 0.015 |
| AGCTTGGGTT | 0.98 ± 0.018 |
| AGCTTGTGAA | 1.01 ± 0.011 |
| AGCTTTAAAA | 0.981 ± 0.025 |
| AGCTTTGGGA | 0.995 ± 0.085 |
| AGCTTTTTTA | 1.02 ± 0.015 |
| AGGAAAACAG | 1.026 ± 0.0032 |
| AGGAAAGTAG | 0.9719 ± 0.0097 |
| AGGAAGACAA | 1.03 ± 0.028 |
| AGGAAGCGGG | 1.0224 ± 0.00031 |
| AGGAAGTCTT | 0.941 ± 0.021 |
| AGGAAGTTGC | 0.9883 ± 0.0085 |
| AGGAATAAGC | 1.01 ± 0.012 |
| AGGAATCGGG | 0.993 ± 0.047 |
| AGGACAAATC | 0.985 ± 0.026 |
| AGGACCAGCA | 1.024 ± 0.0075 |
| AGGACGATGG | 1.1 ± 0.16 |
| AGGACTCGGG | 1.04 ± 0.068 |
| AGGAGAATCT | 1 ± 0.025 |
| AGGAGAGCTT | 1.02 ± 0.012 |
| AGGAGAGGGA | 0.995 ± 0.038 |

| Sequence | switch fluorescence ratio |
| --- | --- |
| AGGAGATAAA | 0.983 ± 0.015 |
| AGGAGCAGCG | 0.919 ± 0.03 |
| AGGAGCAGGG | 1 ± 0.05 |
| AGGAGCGCGG | 1.027 ± 0.003 |
| AGGAGCGGCA | 1.018 ± 0.0095 |
| AGGAGCTGAA | 0.987 ± 0.021 |
| AGGAGCTTTC | 1.08 ± 0.039 |
| AGGAGGAGTA | 0.968 ± 0.019 |
| AGGAGGATGT | 0.98 ± 0.01 |
| AGGAGGCATT | 1.02 ± 0.02 |
| AGGAGGGAAC | 0.9916 ± 0.0016 |
| AGGAGGGATA | 1.04 ± 0.015 |
| AGGAGGGCTG | 0.984 ± 0.011 |
| AGGAGGGGAT | 1.02 ± 0.045 |
| AGGAGGGGG | 0.989 ± 0.049 |
| AGGAGGGGTC | 1.01 ± 0.048 |
| AGGAGGGTTT | 0.999 ± 0.032 |
| AGGAGGTTGG | 0.998 ± 0.017 |
| AGGAGTAATC | 1.04 ± 0.072 |
| AGGAGTAATT | 1.01 ± 0.024 |
| AGGAGTATGG | 1.02 ± 0.015 |
| AGGAGTCGTT | 1.02 ± 0.044 |
| AGGAGTGGCG | 0.97841 ± 0.00086 |
| AGGAGTTTTT | 0.98 ± 0.03 |
| AGGATAAAGG | 1.03 ± 0.036 |

| Sequence | switch fluorescence ratio |
| --- | --- |
| AGGATACTTT | 0.9793 ± 0.0038 |
| AGGATATATT | 0.976 ± 0.0099 |
| AGGATCGGCG | 0.9769 ± 0.0046 |
| AGGATGGTAT | 1.003 ± 0.01 |
| AGGATTAGCT | 0.999 ± 0.042 |
| AGGATTGGGG | 1 ± 0.043 |
| AGGCAAGGGG | 1.04 ± 0.069 |
| AGGCAATGTC | 1.48 ± 0.17 |
| AGGCAATGTT | 1.05 ± 0.013 |
| AGGCACGCTG | 1.02 ± 0.014 |
| AGGCACGTCG | 1.021 ± 0.009 |
| AGGCAGAACG | 1.048 ± 0.0058 |
| AGGCAGGCGG | 1.01 ± 0.073 |
| AGGCAGTGTC | 1.04 ± 0.05 |
| AGGCAGTTTC | 0.988 ± 0.049 |
| AGGCATATGG | 0.993 ± 0.057 |
| AGGCATGATG | 1.0051 ± 0.00033 |
| AGGCCCTAGG | 1.046 ± 0.0036 |
| AGGCCGAGGA | 0.991 ± 0.018 |
| AGGCCGGAAT | 1.27 ± 0.46 |
| AGGCCGTATT | 1 ± 0.029 |
| AGGCCGTCCT | 1.02 ± 0.1 |
| AGGCCGTCGT | 1.043 ± 0.0064 |
| AGGCCTCGGG | 1.022 ± 0.0054 |
| AGGCCTGCGG | 1.05 ± 0.033 |

| Sequence | switch fluorescence ratio |
| --- | --- |
| AGGCGAAGCA | 0.9923 ± 0.0092 |
| AGGCGACATT | 0.9819 ± 0.0056 |
| AGGCGCAAGC | 1.07 ± 0.048 |
| AGGCGCCTGG | 0.964 ± 0.04 |
| AGGCGGAACT | 1.02 ± 0.026 |
| AGGCGGAGTT | 0.97011 ± 0.00078 |
| AGGCGGCCGT | 0.9889 ± 0.0082 |
| AGGCGGGACA | 1.025 ± 0.0082 |
| AGGCGGGGCT | 0.97301 ± 0.00064 |
| AGGCGGGGTT | 1.01 ± 0.026 |
| AGGCGGTAGC | 1.02 ± 0.0037 |
| AGGCGTTGAG | 0.976 ± 0.018 |
| AGGCTAAAGG | 1 ± 0.026 |
| AGGCTATGTA | 0.9998 ± 0.0042 |
| AGGCTGGCTA | 1 ± 0.019 |
| AGGCTTAAGA | 0.976 ± 0.031 |
| AGGCTTAATC | 0.9903 ± 0.0069 |
| AGGCTTACTC | 1.39 ± 0.028 |
| AGGCTTAGG | 0.957 ± 0.0032 |
| AGGCTTGCCA | 0.9991 ± 0.0016 |
| AGGCTTGTGC | 1.01 ± 0.081 |
| AGGCTTTGCA | 0.992 ± 0.01 |
| AGGGAAAGGA | 0.9889 ± 0.0085 |
| AGGGAAAGTG | 0.971 ± 0.02 |
| AGGGAACGGG | 1.01 ± 0.055 |

| Sequence | switch fluorescence ratio |
| --- | --- |
| AGGGAATGTA | 0.99 ± 0.016 |
| AGGGAATTTG | 1.014 ± 0.0021 |
| AGGGACGCGA | 1.26 ± 0.037 |
| AGGGAGAATT | 1 ± 0.013 |
| AGGGAGCGGT | 1.026 ± 0.0063 |
| AGGGAGCTGT | 1.023 ± 0.0015 |
| AGGGAGGAGT | 0.988 ± 0.026 |
| AGGGAGGATT | 0.965 ± 0.034 |
| AGGGAGGCAG | 1 ± 0.033 |
| AGGGAGTCTC | 0.98 ± 0.031 |
| AGGGAGTCTT | 0.971 ± 0.052 |
| AGGGATAAAG | 1.01 ± 0.023 |
| AGGGATAGCT | 0.967 ± 0.006 |
| AGGGATCCTA | 0.978 ± 0.012 |
| AGGGATCGGT | 0.979 ± 0.025 |
| AGGGATGAGA | 0.9965 ± 0.0024 |
| AGGGCAAAAG | 1.03 ± 0.006 |
| AGGGCAATGG | 1.29 ± 0.38 |
| AGGGCAATGT | 1.11 ± 0.032 |
| AGGGCACATA | 1.0764 ± 9.5e-05 |
| AGGGCACGGG | 0.982 ± 0.023 |
| AGGGCAGGAC | 1.41 ± 0.024 |
| AGGGCAGGG | 0.975 ± 0.065 |
| AGGGCAGGGA | 0.993 ± 0.017 |
| AGGGCAGGTG | 2.65 ± 0.13 |
